Molecular target: rat cardiac SR Ca2+ ATPase (SERCA2a), endogenous in rat cardiomyocytes (rat, UniProt P11507 1-1043)
Assay: cell-based or functional assay

rat cardiac SR Ca2+ ATPase (SERCA2a), endogenous in rat cardiomyocytes, sequence (P11507 whole entry): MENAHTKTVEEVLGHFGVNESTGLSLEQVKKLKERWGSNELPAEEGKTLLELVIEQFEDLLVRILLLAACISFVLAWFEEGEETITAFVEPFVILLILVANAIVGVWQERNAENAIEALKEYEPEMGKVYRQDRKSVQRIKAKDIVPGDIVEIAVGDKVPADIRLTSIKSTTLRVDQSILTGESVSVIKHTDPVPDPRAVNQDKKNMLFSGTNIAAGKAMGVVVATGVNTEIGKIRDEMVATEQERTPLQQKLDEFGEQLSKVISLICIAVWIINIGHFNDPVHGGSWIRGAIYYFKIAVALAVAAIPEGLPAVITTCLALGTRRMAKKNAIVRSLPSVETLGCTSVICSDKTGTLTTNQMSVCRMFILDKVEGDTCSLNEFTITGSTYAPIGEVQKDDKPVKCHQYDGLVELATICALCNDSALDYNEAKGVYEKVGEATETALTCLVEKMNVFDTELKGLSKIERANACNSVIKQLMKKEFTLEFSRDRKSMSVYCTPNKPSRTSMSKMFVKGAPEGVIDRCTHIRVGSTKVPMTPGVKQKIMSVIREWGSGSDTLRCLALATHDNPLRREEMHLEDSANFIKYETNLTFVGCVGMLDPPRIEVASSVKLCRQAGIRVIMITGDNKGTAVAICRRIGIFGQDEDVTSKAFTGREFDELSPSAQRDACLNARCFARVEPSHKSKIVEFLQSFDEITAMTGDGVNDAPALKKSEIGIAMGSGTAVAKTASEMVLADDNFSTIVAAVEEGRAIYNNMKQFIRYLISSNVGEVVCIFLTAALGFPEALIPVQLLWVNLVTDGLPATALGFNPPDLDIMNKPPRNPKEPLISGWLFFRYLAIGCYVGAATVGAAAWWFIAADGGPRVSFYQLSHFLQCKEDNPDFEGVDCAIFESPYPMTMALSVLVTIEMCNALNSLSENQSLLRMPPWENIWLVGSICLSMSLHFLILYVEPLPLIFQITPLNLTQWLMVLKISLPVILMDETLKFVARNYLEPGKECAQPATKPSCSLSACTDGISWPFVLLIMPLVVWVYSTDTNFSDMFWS

EC50 of Ca2+ concentration at which the SR Ca2+ uptake activity is half-maximal (neonatal rat myocytes): 110 nM | lowering of the EC50 of Ca2+ for SR Ca2+ uptake (adult rat myocytes): 36%
B1: K3E/R14E double point mutation of PLB (other)
chain: MEEVQYLTRSAIREASTIEMPQQARQKLQNLFINFCLILICLLLICIIVMLL

Source: EP1126866B1 (The Regents of the University of California, dated 2007)
